Results on five molecules are retold here after patent US20230203196A1 (MABWELL THERAPEUTICS, published 2023).

First the molecules themselves.
B1: humanized anti-TMPRSS6 antibody variant hzMWTx-001Var (antibody, human IgG1, kappa, N297A, V domains shown)
VH: EVQLVQSGAEVKKPGASVKVSCKASGYTFTSYWITWVRQAPGQRLEWIGNIYPGSGSTYYNEKFKSKATITRDTSSRTAYMELSSLRSEDTAVYYCAPYDADYAMDYWGQGTLVTVSS
VL: DIQMTQSPSSLSASVGDRVTITCKASQDISNYLSWFQQKPGKAPKLLIYRANRLVEGVPSRFSGSGSGTDFTLTISSLQPEDFATYFCLQYDEFPLTFGGGTKVEIKR
B2: humanized anti-TMPRSS6 antibody variant hzMWTx-002Var (antibody, human IgG1, kappa, N297A, V domains shown)
VH: EVQLVQSGAEVKKPGASVKVSCKASGFNIKDYYIHWVRQATGQGLEWMGRIDPEDAESEYAPKFQGRVTITADTSTDTAYMELSSLRSEDTAVYYCTRGDSMMVTYFDYWGQGTLVTVSS
VL: DIQMTQSPSSLSASVGDRVTITCKASQDVSTAVAWYQQKPGKAPKLLIYWAFTRHTGVPSRFSGSGSGTDYALTISSLQPEDFATYYCQQHYRSPWTFGGGTKVEIKR
B3: MWTx-003 anti-TMPRSS6 antibody (antibody, mouse IgG2b, kappa, V domains shown)
VH: EVQLQQSGAELVKPGASVKLSCTASGFNIEDYYIHWVKERTEQGLEWIGRIDPEDGETTYAPQFQGKATIIPDTSSNTAYMQLSSLTSEDAAVYYCARSIYLDPMDYWGQGTSVTVSS
VL: DIVMTQSHKFMSTSVGDRVSITCKASQDVTTAVAWYQQKPGQSPKILIYWATTRHTGVPDRFTGSISGTTYILTISSVQAEDLALYYCQQHYSTPYTFGGGTKLEIKR
B4: MWTx-001 anti-TMPRSS6 antibody (antibody, mouse IgG2a, kappa, V domains shown)
VH: QVQLQQPGAELAKPGASVKMSCKASGYTFTSYWITWVKQRPGQDLEWIGNIYPGSGSTYYNEKFKSKATLTVDTSSRTAYMQLSSLTSADSAVYYCAPYDSDYAMDYWGQGTSVTVSS
VL: DIKMTQSPSSMYASLGERVTITCKASQDINNYLSWFQQKPGKSPKTLIYRANRLVDGVPSRVSGSGSGQDYSLTISSLEYEDVGIYFCLQYDEFPLTFGAGTKLELKR
B5: humanized anti-TMPRSS6 antibody variant hzMWTx-003Var (antibody, human IgG1, kappa, L234A L235A, V domains shown)
VH: QVQLVQSGAEVKKPGASVKVSCKASGFNIEDYYMHWVRQAPGQRLEWMGRIDPEDAETTYSPKFQGRVTIIPDTSANTAYMELSSLRSEDTAVYYCARSIYLDPMDYWGQGTLVTVSS
VL: DIQMTQSPKSLSASVGDRVTITCRASQDVTTALAWYQQKPGQSPKLLIYWATTRHSGVPSRFSGSGSGTDFTLTISSLQPEDFATYYCQQHYSTPYTFGQGTKLEIKR

The target of this assay is T1, TMPRSS6 expressed in transfected HepG2 cells (UniProt Q8IU80 1-811, limits assumed).
T1 sequence (looked up): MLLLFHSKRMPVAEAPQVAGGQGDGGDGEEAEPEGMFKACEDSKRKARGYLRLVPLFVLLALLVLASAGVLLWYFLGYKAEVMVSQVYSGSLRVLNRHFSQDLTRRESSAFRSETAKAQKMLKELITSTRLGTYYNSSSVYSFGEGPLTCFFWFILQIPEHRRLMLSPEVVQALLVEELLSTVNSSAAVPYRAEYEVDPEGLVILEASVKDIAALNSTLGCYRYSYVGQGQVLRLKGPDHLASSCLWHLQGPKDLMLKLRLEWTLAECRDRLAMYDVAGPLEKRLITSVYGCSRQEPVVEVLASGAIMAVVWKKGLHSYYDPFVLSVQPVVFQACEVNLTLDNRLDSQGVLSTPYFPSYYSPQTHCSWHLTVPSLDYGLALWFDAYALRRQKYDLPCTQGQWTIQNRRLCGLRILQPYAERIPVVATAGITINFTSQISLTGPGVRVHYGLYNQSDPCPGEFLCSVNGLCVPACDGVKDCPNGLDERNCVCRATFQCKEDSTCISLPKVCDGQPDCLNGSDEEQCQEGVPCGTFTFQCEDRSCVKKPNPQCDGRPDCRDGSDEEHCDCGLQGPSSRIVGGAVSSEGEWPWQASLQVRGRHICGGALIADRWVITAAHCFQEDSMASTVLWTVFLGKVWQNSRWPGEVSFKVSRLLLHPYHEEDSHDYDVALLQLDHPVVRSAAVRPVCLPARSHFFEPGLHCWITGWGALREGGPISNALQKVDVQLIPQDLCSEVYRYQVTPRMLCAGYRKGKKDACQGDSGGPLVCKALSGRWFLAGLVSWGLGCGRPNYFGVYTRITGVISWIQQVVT
The experiment in a line: cell-based or functional assay.
For the molecule B1, the “HAMP promoter activity (HAMP-luciferase reporter assay in HepG2 cells expressing TMPRSS6), EC50” value (“HAMP promoter activity” below) is 0.8 µg/mL.
Consider B2, for which the “HAMP promoter activity” value was found to be 0.3 µg/mL.
The figure for B3 is 2 µg/mL.
For B4, the “HAMP promoter activity” value was determined as 3 µg/mL.
The figure for B5 is 0.3 µg/mL.
